Test results from FireProtDB (doi:10.1021/bi9901228).

Conditions: Homo sapiens; pH 2.7; Thermal; DSC; glycine 0.05 M; reversible: yes; whole UniProt chain shown

B1: Lysozyme C wild type, P61626 (protein)
chain: MKALIVLGLVLLSVTVQGKVFERCELARTLKRLGMDGYRGISLANWMCLAKWESGYNTRATNYNAGDRSTDYGIFQINSRYWCNDGKTPGAVNACHLSCSALLQDNIADAVACAKRVVRDPQGIRAWVAWRNRCQNRDVRQYVQGCGV
  Tm: 64.9 °C
  heat capacity change of unfolding: 1.58 kcal/mol/K
  unfolding enthalpy (calorimetric): 114 kcal/mol
